Measured values from IntAct's records for PubMed 20682316.

B1: Oxysterols receptor LXR-alpha (Homo sapiens), Q13133 (parent)
chain: MSLWLGAPVPDIPPDSAVELWKPGAQDASSQAQGGSSCILREEARMPHSAGGTAGVGLEAAEPTALLTRAEPPSEPTEIRPQKRKKGPAPKMLGNELCSVCGDKASGFHYNVLSCEGCKGFFRRSVIKGAHYICHSGGHCPMDTYMRRKCQECRLRKCRQAGMREECVLSEEQIRLKKLKRQEEEQAHATSLPPRASSPPQILPQLSPEQLGMIEKLVAAQQQCNRRSFSDRLRVTPWPMAPDPHSREARQQRFAHFTELAIVSVQEIVDFAKQLPGFLQLSREDQIALLKTSAIEVMLLETSRRYNPGSESITFLKDFSYNREDFAKAGLQVEFINPIFEFSRAMNELQLNDAEFALLIAISIFSADRPNVQDQLQVERLQHTYVEALHAYVSIHHPHDRLMFPRMLMKLVSLRTLSSVHSEQVFALRLQDKKLPPLLSEIWDVHE
B2: Retinoic acid receptor RXR-alpha (Homo sapiens), P19793 (parent)
chain: MDTKHFLPLDFSTQVNSSLTSPTGRGSMAAPSLHPSLGPGIGSPGQLHSPISTLSSPINGMGPPFSVISSPMGPHSMSVPTTPTLGFSTGSPQLSSPMNPVSSSEDIKPPLGLNGVLKVPAHPSGNMASFTKHICAICGDRSSGKHYGVYSCEGCKGFFKRTVRKDLTYTCRDNKDCLIDKRQRNRCQYCRYQKCLAMGMKREAVQEERQRGKDRNENEVESTSSANEDMPVERILEAELAVEPKTETYVEANMGLNPSSPNDPVTNICQAADKQLFTLVEWAKRIPHFSELPLDDQVILLRAGWNELLIASFSHRSIAVKDGILLATGLHVHRNSAHSAGVGAIFDRVLTELVSKMRDMQMDKTELGCLRAIVLFNPDSKGLSNPAEVEALREKVYASLEAYCKHKYPEQPGRFAKLLLRLPALRSIGLKCLEHLFFFKLIGDTPIDTFLMEMLEAPHQMT

Variants of: B1
Details: with ncoa1_human NCOA1, Q15788
Target sequence in this assay (Q15788 whole entry): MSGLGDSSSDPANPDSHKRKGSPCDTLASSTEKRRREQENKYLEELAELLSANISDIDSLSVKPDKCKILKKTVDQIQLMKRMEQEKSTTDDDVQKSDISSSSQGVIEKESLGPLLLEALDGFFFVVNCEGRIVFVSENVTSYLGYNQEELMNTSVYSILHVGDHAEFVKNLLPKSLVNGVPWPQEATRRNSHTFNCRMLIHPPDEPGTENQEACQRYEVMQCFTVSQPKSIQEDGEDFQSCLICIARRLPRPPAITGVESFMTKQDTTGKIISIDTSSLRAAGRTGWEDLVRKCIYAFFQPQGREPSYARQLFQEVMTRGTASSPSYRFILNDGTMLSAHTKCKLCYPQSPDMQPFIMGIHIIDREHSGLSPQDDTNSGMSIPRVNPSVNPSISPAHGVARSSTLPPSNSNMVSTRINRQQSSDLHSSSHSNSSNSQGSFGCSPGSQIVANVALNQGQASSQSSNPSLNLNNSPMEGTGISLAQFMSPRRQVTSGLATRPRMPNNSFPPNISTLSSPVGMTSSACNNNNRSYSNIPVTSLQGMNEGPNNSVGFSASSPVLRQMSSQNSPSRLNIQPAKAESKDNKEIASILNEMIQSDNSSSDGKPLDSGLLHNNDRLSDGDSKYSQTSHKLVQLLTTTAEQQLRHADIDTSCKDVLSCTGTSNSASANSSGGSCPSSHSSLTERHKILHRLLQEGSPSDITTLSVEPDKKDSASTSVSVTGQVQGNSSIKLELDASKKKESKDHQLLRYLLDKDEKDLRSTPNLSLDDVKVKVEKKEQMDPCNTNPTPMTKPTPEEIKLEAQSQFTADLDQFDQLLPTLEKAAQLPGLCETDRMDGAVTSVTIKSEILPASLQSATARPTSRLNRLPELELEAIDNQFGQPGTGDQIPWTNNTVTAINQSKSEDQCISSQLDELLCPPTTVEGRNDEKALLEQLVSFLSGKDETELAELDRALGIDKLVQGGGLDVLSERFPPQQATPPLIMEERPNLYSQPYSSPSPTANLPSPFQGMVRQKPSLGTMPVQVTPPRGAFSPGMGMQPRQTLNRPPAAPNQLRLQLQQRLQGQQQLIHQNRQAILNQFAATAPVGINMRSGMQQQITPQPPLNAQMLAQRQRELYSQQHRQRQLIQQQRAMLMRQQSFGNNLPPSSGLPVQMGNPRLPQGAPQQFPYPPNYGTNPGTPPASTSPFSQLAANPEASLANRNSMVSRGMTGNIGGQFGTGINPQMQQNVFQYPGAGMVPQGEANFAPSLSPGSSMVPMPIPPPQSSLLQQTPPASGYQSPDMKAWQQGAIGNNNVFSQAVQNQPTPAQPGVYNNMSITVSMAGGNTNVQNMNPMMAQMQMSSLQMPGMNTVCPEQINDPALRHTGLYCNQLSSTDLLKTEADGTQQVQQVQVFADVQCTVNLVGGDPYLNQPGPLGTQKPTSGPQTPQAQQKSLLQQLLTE

Variant | effect of a mutation on the interaction
K273A | disrupting interaction

Variants of: B1
Details: with ncoa1_human NCOA1, Q15788
Remark: another data set of the same source
Target sequence in this assay (Q15788 whole entry): as above

Variant | effect of a mutation on the interaction
E441A | disrupting interaction
I442A | disrupting interaction

Variants of: B2
Details: with ncoa1_human NCOA1, Q15788
Target sequence in this assay (Q15788 whole entry): as above

Variant | effect of a mutation on the interaction
K284A | disrupting interaction
